# Assay: soluble on expression in E. coli; label from the status in PepcDB or PDB records
row,Sequence,soluble on expression in E. coli
1,MGSDKIHHHHHHMSVRVNNLLKLPSLREATVLSGKNQLDTSVASLSFLEVSDMSLFSEKLHKTNEYHAGEILIGSFCAIRHDVVKQCETIRHLHELGEVGLILYYVGIIVPKVAEEVIQLADSLGFILIQMPKNDPTLRYNEVIYEVMKLLVNKNKMASFATDLLEKVSLLPEQNRSVEMTLKILSDFLKVNIALTTYTNEIISTINWPRSTKLPLTKLLYQSQEKVALGETTYFITSQKLPQKDGQTLKLYFIREEEQLTSFEMNQAVEVVQMALNLWGKNYDEVSEYALVQAIINDESDKMYQLAKKLMIDISSVETMWLLPIWQQGQEIHAIQQDLKDFLRYYYQTTIVQQTENYLIVLLGNYLHKQPEATISKEYLQATDYQDYLGEIILCPKVRNTTEVRVSYQTANQVAPFLKRVYPQRKVLSIAEIRTVQQMMTCLQAGEEAIQQRLAVIQPLLKESEQLMTLGTFLLDASSDFNECGERLFVHKNTVKYRISKINEALGYDMTNAAEAYEVYLAMILYRLVTNE,not soluble
2,MSQLPTDFASLIKRFQFVSVLDSNPQTKVMSLLGTIDNKDAIITAEKTHFLFDETVRRPSQDGRSTPVLYNCENEYSCINGIQELKEITSNDIYYWGLSVIKQDMESNPTAKLNLIWPATPIHIKKYEQQNFHLVRETPEMYKRIVQPYIEEMCNNGRLKWVNNILYEGAESERVVYKDFSEENKDDGFLILPDMKWDGMNLDSLYLVAIVYRTDIKTIRDLRYSDRQWLINLNNKIRSIVPGCYNYAVHPDELRILVHYQPSYYHFHIHIVNIKHPGLGNSIAAGKAILLEDIIEMLNYLGPEGYMNKTITYAIGENHDLWKRGLEEELTKQLERDGIPKIPKIVNGFK,soluble
3,MGSDKIHHHHHHMINSYISQQIERNFPYKPTDDQFLALHTLTEFLLSEEPDSLLLMKGYAGTGKTSLVGALVKTLNELKQKTFLLAPTGRAAKVFSGYAGQKAYTIHKKIYRQRAFSNEPTGFMPADNLHKDTLFIVDEASMIANEGLDSFVFGSGRLLDDLIQYVYSGENCRLILMGDVAQLPPVMQTESPALNPEILRGYNLQVWEIALTQVVRQSEDSGILFNATRLRDALRNHTVEIFPKLQLKGFSDFTKVNGDELIEEISSAYSRDGMEETMIISRSNKRATIYNNGIRNRILYREEELSSGDRLMVAKNNYYWTANCKEMDFIANGEIIQVMRVRRVTEMYGFRFADITARFQDYDLEIDLKILLDTLQTDSPALPKELNDKLFYTILEDYEDIPTKAGKMKKMKVDPHYNVVQVKYAYAVTCHKAQGGQWMNVFLDIGYITEEMLGEDFYRWLYTAFTRATHHLYLVNLPDEFVE,not soluble
4,MVSVNENALPLVERMIERAELLNVEVQELENGTTVIDCGVEAAGGFEAGLLFSEVCMGGLATVELTEFEHDGLCLPAVQVTTDHPAVSTLAAQKAGWQVQVGDYFAMGSGPARALALKPKETYEEIDYEDDADVAILCLESSELPDEDVAEHVADECGVDPENLYLLVAPTASIVGSVQVSARVVETGLYKLLEVLEYDVTRVKYATGTAPIAPVADDDGEAMGRTNDCILYGGTVYLYVEGDDELPEVVEELPSEASEDYGKPFMKIFEEADYDFYKIDPGVFAPARVVVNDLSTGKTYTAGEINVDVLKESFSL,soluble
5,MHTAEFLETEPTEISSVLAGGYNHPLLRQWQSERQLTKNMLIFPLFISDNPDDFTEIDSLPNINRIGVNRLKDYLKPLVAKGLRSVILFGVPLIPGTKDPVGTAADDPAGPVIQGIKFIREYFPELYIICDVCLCEYTSHGHCGVLYDDGTINRERSVSRLAAVAVNYAKAGAHCVAPSDMIDGRIRDIKRGLINANLAHKTFVLSYAAKFSGNLYGPFRDAACSAPSNGDRKCYQLPPAGRGLARRALERDMSEGADGIIVKPSTFYLDIMRDASEICKDLPICAYHVSGEYAMLHAAAEKGVVDLKTIAFESHQGFLRAGARLIITYLAPEFLDWLDEEN,soluble
6,MGSDKIHHHHHHMNREVFITCAVTGSGGSQDRSPHVPRSPKQIADSAIDAAKAGAAIVHCHVRDPETGKPRRDVHLYREVTERIRDANVDVVLNLTAGMGGDMVFGSPEAPLPLNEKGTDMGGATNRMEHVRQCLPEICTLDCGTMNFAEADYVMTNTPGMLRAMGGMMTALGVKPEIEAFDTGHLWFAKQLVEEKVLNPDALVQLCMGVPWGAPDDLNTFMAMVNNVPSTWNWSAFAIGRNQMAYAAAAVLAGGNVRVGLEDNLWLDKGVLATNAQLVERAASIVTNLGARILGPEEVRKKLNLTKRAPIAAAA,not soluble
7,MPVLYKPFQSNLEDKKSGKKLFYPHVVRTGNINSAQLSKEIAAYSSLSPGDVKNTLDNLVTVMAQHLQSSESVSVDGLGTFRMVMSARGRGVETADEVSAAQATLTVRFQPTTTKNLDRTTATRSMVTGAKCARYDKLVSAPGDGGSVDDPNDKPGGGSDGGDDGEAPDPTV,not soluble

# — the DeepSol protein solubility set
